Results on one protein are retold here after publication PMC3981807.

Substrate in the data set: O=P(O)(O)O[C@H]1[C@H](OP(=O)(O)O)[C@@H](OP(=O)(O)O)[C@H](OP(=O)(O)O)[C@@H](OP(=O)(O)O)[C@H]1OP(=O)(O)O
Put plainly: purified protein. The following applies: 50 mM sodium acetate pH 4.0, 50 °C, ionic strength 50 mM (NaCl), 3 min, sodium phytate 0.006-0.800 mM.

B1: Bd1204 (Bdellovibrio bacteriovorus HD100) (protein)
chain: QKSVSLTPDKPVSTKIPFFMTRPQPTTPVELVFDKDHAAPKPMNYRKSDSLRMSGSATFSPKALKEVAKPVKKNKASLYVFDLRQESHGLINDIPVTWYADRDWANADLNHEEAVRRERRLLGDLRVGDKIGTTAIQSIETEESMIRTGGHQYVRLTVTDHVRPVDSEVDRFIESVRALPENAWVHFHCRAGKGRTTTFMVLYDMLKNAKTDSFEEIIKRNTELSNDYDVLTVPADEKDWKYPYQKERAAFVTEFYNYAKAHPNGEGMLWGEWVLR
Turning to B1, the Km was 574 µM and the kcat stood at 124 s⁻¹.
